The record followed here is patent US20210115127A1 (SURFACE ONCOLOGY, published 2021).

Residue numbers refer to the chain shown, from its start.

First the molecules themselves.
B1: recombinant human IL-27 (heterodimer of IL-27p28 and EBI3) (ligand)
chain 1: FPRPPGRPQLSLQELRREFTVSLHLARKLLSEVRGQAHRFAESHLPGVNLYLLPLGEQLPDVSLTFQAWRRLSDPERLCFISTTLQPFHALLGGLGTQGRWTNMERMQLWAMRLDLRDLQRHLRFQVLAAGFNLPEEEEEEEEEEEEERKGLLPGALGSALQGPAQVSWPQLLSTYRLLHSLELVLSRAVRELLLLSKAGHSVWPLGFPTLSPQP
chain 2: RKGPPAALTLPRVQCRASRYPIAVDCSWTLPPAPNSTSPVSFIATYRLGMAARGHSWPCLQQTPTSTSCTITDVQLFSMAPYVLNVTAVHPWGSSSSFVPFITEHIIKPDPPEGVRLSPLAERQLQVQWEPPGSWPFPEIFSLKYWIRYKRQGAARFHRVGPIEATSFILRAVRPRARYYVQVAAQDLTDYGELSDWSLPATATMSLGK
notes: Bought recombinant protein (R&D Systems 2526-IL) in the cell and ForteBio assays; also called rhIL-27
B2: human EBI3 subunit (ligand)
chain: B1 chain 2
B3: human IL-27p28 subunit (ligand)
chain: B1 chain 1
B4: anti-IL-27 Ab3 (antibody, V domains shown)
VH: EVQLVESGGGLVKPGGSLRLSCAASGFTFRSYGMNWVRQAPGKGLEWVSSISSSSSYIYYADSVKGRFTISRDNAKNSLYLQMNSLRAEDTAVYYCARDGGRTSYTATAHNWFDPWGQGTLVTVSS
VL: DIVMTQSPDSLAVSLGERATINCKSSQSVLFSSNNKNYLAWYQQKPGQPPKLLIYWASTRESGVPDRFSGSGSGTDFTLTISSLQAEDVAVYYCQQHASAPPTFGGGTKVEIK
B5: anti-IL-27 Ab1 (antibody, V domains shown)
VH: B4 VH with S50G, S55G
VL: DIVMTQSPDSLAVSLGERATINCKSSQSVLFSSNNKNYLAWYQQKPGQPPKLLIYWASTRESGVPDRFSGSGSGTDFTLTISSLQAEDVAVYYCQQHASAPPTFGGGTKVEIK

Assay [1] deals with T1, gp130 (human, UniProt P40189 23-619, limits assumed).
T1 construct: also called IL6ST; Interleukin-6 Signal Transducer
T1 sequence: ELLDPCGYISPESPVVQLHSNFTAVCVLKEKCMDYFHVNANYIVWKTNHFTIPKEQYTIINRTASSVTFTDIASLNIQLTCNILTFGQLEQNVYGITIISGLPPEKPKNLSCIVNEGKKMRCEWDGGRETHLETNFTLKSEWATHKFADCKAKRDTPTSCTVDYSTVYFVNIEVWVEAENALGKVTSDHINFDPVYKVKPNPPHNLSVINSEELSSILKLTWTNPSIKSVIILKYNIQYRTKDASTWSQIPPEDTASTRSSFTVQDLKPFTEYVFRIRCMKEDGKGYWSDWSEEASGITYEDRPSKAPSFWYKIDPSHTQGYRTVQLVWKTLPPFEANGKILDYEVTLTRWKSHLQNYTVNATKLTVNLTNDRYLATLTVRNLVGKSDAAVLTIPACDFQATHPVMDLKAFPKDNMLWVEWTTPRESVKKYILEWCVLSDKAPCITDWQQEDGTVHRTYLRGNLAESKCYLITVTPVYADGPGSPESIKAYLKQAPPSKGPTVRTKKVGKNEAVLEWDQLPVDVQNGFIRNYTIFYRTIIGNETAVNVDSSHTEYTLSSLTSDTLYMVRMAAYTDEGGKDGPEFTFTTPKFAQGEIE
The assay can be described thus: SPR on gp130; trace (2), rhIL-27 alone, and trace (1), rhIL-27 + Anti-IL-27 Ab1, both rise to about 45 RU.

Assay [2] deals with T2, IL-27RA (WSX-1) (human, UniProt Q6UWB1 33-516, limits assumed).
T2 construct: also called IL-27Rα; IL-27 receptor subunit alpha
T2 sequence: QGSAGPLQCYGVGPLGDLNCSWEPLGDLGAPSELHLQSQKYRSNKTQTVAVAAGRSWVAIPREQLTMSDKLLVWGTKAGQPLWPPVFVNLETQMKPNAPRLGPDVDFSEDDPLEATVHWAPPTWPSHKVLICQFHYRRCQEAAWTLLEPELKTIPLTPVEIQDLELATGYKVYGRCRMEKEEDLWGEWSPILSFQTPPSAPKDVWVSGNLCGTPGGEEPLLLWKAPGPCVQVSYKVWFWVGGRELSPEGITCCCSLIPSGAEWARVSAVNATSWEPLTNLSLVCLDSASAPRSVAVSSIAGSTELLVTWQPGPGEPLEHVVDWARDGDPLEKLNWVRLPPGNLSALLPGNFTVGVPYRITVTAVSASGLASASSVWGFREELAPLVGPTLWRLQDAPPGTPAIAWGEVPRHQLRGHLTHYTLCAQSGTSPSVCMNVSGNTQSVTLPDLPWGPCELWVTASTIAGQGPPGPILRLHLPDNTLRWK
The assay can be described thus: SPR on WSX-1; trace (2), rhIL-27 alone, rises to about 210 RU; trace (1), rhIL-27 + Anti-IL-27 Ab1, stays at or below 0 RU.

Assay [3] concerns the target T1, gp130. The assay can be described thus: Drawn table Ligand / Analyte / Result, ligand gp130, analyte IL-27 heterodimer; method not named for this figure (SPR is used in the same example).
Assay [4] concerns the target T2, IL-27RA (WSX-1). Description: Drawn table Ligand / Analyte / Result, ligand WSX-1, analyte EBI3 alone; method not named for this figure (SPR is used in the same example).
Assay [5] deals with B3. The assay can be described thus: binding affinity data of FIG. 17; method not stated.
Assay [6] deals with B3. Description: Drawn table Ligand / Analyte / Result, ligand p28 held by Anti-IL-27 Ab3 (anti-p28), analyte EBI3; method not named for this figure (SPR is used in the same example).
Assay [7] has as its target T1, gp130. Description: Drawn table Ligand / Analyte / Result, ligand gp130, analyte p28 alone; method not named for this figure (SPR is used in the same example).
Assay [8] has as its target B1. The assay can be described thus: cell-based or functional assay.
The target of assay [9] is T3, recombinant cynomolgus monkey IL-27 (cynomolgus monkey, UniProt A0A2K5UBM6 29-244; A0A2K5WPB7 36-244).
T3 sequence (alpha): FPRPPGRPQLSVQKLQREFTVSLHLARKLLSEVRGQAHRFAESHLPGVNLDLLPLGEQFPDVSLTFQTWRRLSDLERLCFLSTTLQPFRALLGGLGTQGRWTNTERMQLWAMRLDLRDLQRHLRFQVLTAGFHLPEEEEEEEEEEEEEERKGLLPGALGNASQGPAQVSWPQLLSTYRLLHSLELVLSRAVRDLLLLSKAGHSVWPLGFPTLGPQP
T3 sequence (beta): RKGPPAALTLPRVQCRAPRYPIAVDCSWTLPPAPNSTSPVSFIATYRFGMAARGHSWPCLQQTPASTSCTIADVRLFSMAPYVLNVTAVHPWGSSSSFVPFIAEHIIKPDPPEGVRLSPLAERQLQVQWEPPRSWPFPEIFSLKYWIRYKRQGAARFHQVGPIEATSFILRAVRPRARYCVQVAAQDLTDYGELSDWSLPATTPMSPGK
The assay can be described thus: cell-based or functional assay.

A further assay has as its target T4, recombinant mouse IL-27 (mouse, UniProt Q8K3I6 29-234; O35228 19-228).
T4 sequence (looked up) 1: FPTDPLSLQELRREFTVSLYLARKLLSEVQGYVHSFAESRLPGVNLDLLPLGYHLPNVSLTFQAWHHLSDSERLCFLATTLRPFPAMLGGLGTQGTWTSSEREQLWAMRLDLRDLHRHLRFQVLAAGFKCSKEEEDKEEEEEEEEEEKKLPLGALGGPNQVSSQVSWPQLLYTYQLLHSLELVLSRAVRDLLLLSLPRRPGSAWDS
T4 sequence (looked up) 2: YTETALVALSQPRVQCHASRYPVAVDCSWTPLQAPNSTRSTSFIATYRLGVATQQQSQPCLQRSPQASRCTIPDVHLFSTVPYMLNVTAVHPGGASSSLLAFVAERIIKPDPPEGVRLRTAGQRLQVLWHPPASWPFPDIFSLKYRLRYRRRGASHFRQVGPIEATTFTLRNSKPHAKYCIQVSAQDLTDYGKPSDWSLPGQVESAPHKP
Description: cell-based or functional assay.

The next assay addresses T5, recombinant rat IL-27 (rat, UniProt D3ZPW3 29-234; M0RD76 19-228).
T5 sequence (alpha): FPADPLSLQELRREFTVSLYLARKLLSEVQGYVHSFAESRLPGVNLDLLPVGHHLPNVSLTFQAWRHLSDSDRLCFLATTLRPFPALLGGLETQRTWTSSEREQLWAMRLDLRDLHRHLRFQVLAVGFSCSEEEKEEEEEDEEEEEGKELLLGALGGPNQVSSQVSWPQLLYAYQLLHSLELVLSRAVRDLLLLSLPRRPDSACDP
T5 sequence (beta): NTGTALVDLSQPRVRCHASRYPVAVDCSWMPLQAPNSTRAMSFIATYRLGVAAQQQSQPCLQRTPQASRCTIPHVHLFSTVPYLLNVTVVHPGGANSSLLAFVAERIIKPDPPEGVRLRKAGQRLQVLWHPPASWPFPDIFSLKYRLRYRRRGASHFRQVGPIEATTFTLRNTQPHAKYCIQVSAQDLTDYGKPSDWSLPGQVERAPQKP
Description: cell-based or functional assay.

For assay [10], the target named is B1. The assay can be described thus: cell-based or functional assay. This is another data set of the same source.

By Kd is commonly meant the concentration at which binding is half-saturated.

Regarding B1, the Kd with gp130 [1] amounted to 4.1 nM; with IL-27RA (WSX-1) [2] it was 0.0206 nM; with gp130 [3], 34 nM.
As to B2, the Kd in the assay with IL-27RA (WSX-1) [4] turned out to be 3.81 nM; in the assay with human IL-27p28 subunit [5], 5 nM; with human IL-27p28 subunit [6], 5.07 nM.
As for B3, in the assay with gp130 [7], the Kd was ~1000 nM.
For B4, in assay [8], the “IC50, inhibition of phosphorylation of STAT1 in HUT-78 cells (flow cytometry)” value turned out to be 0.08 µg/mL; the “IC50, inhibition of phosphorylation of STAT1 in U937 cells (flow cytometry)” value was determined as 0.081 µg/mL; the “IC50, inhibition of phosphorylation of STAT1 in pooled human PBMCs (flow cytometry)” value stood at 0.141 µg/mL.
For B5, in assay [8], the “IC50, inhibition of phosphorylation of STAT1 in HUT-78 cells (flow cytometry)” value was found to be 0.095 µg/mL; the “IC50, inhibition of phosphorylation of STAT1 in U937 cells (flow cytometry)” value worked out at 0.096 µg/mL; the “IC50, inhibition of phosphorylation of STAT1 in pooled human PBMCs (flow cytometry)” value was determined as 0.0583 µg/mL. Also, the “Average IC50, ng/mL; IL-27 pSTAT1 signaling inhibition in peripheral blood T cells, cynomolgus monkey” value in assay [9] is 118 ng/mL. Further, the “Average IC50, ng/mL; IL-27 pSTAT1 signaling inhibition in peripheral blood T cells, mouse” value with recombinant mouse IL-27 is 1720 ng/mL. Also, the “Average IC50, ng/mL; IL-27 pSTAT1 signaling inhibition in peripheral blood T cells, rat” value with recombinant rat IL-27 came out at 273 ng/mL. The “Average IC50, ng/mL; IL-27 pSTAT1 signaling inhibition in peripheral blood T cells, human” value in assay [10] stood at 78.4 ng/mL.
